From publication PMC6566870, “Influence of Chemokine N-Terminal Modification on Biased Agonism at the Chemokine Receptor CCR1” (International Journal of Molecular Sciences, 2019) come the findings set out here.

In test [1] the target is T1, N-terminally His6-tagged cMyc-tagged human CCR1 (human, UniProt P32246 1-355).
T1 sequence (looked up): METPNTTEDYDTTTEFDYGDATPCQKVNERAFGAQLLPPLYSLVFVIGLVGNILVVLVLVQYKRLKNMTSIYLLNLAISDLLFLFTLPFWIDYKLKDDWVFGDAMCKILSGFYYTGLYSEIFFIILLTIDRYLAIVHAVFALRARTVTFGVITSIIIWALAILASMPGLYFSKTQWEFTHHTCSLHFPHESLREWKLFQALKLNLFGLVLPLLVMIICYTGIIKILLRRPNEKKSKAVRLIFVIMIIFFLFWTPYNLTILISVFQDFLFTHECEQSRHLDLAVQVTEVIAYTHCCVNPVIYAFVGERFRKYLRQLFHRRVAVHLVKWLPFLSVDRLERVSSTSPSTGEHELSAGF
As to the kind of experiment: cell-based or functional assay.

Test [2] addresses T1, N-terminally His6-tagged cMyc-tagged …. In words: radioligand binding; competitive displacement of 50 pM 125I-CCL3 from membranes of Flp-In T-REx 293 cells expressing CCR1; 2 h at 37 °C; two sets of experiments (Table 1, Table 3). As to conditions: one partner purified.
Test [3] has the same target. As to the kind of experiment: cell-based or functional assay. The source holds these as a separate data set.
For test [4] the target is unchanged. In words: radioligand binding; competitive displacement of 50 pM 125I-CCL3 from membranes of Flp-In T-REx 293 cells expressing CCR1; 2 h at 37 °C; two sets of experiments (Table 1, Table 3). The note with it: one partner purified. This is another data set of the same source.

B1: CCL8 (Lys-46 allele, Pro-8→Ala) (ligand, human, UniProt P80075 24-99, looked up)
chain: QPDSVSIAITCCFNVINRKIPIQRLESYTRITNIQCPKEAVIFKTKRGKEVCADPKERWVRDSMKHLDQIFQNLKP
notes: CCL8 (MCP-2), human, Lys-46 allele, with Pro-8→Ala to make the protein monomeric; N-terminal region of ten residues before the CC motif; also called MCP-2; not shown: His6, N-terminal, cleaved
As to B1, in test [1], the “ERK1/2 phosphorylation, EC50” value was found to be 0.0655 µM; the “ERK1/2 phosphorylation, pEC50” value is 7.2 -log M; the “G protein activation (Gαi1, BRET), EC50” value is 0.03 µM; the “G protein activation (Gαi1, BRET), pEC50” value was 7.5 -log M. In addition, in test [1], the “inhibition of forskolin-induced cAMP production, EC50” value is 0.048 µM and the “inhibition of forskolin-induced cAMP production, pEC50” value was 7.3 -log M. Besides, in test [2], the IC50 was found to be 0.0023 µM and the pIC50 was 8.6 -log M.

B2: CCL7 (ligand)
chain: not shown
notes: CCL7 (MCP-3), human, wild type; N-terminal region of ten residues before the CC motif; also called monocyte chemoattractant protein-3; MCP-3; not shown: His6, N-terminal, cleaved
Consider B2, for which, in test [1], the “ERK1/2 phosphorylation, EC50” value was determined as 0.0096 µM; the “ERK1/2 phosphorylation, pEC50” value was 8 -log M; the “G protein activation (Gαi1, BRET), EC50” value worked out at 0.014 µM; the “G protein activation (Gαi1, BRET), pEC50” value is 7.9 -log M. In test [1], the “inhibition of forskolin-induced cAMP production, EC50” value turned out to be 0.0095 µM and the “inhibition of forskolin-induced cAMP production, pEC50” value is 8 -log M. In test [3], the “Gαi2 activation (BRET), EC50” value amounted to 0.0264 µM and the “Gαi2 activation (BRET), pEC50” value was 7.6 -log M. Besides, in test [2], the IC50 came to 0.00033 µM and the pIC50 is 9.5 -log M. Besides, in test [4], the IC50 amounted to 0.0012 µM and the pIC50 is 8.9 -log M.
